1 substance from patent US20080050776A1 can be followed below.

One test addresses Sortilin co-receptor (UniProt O54861). As to the kind of experiment: cell-based or functional assay.
In test [1] the target is p75 neurotrophin receptor (p75NTR) (UniProt P07174). As to the kind of experiment: cell-based or functional assay.
UniProt P07174, sequence (P07174 30-425): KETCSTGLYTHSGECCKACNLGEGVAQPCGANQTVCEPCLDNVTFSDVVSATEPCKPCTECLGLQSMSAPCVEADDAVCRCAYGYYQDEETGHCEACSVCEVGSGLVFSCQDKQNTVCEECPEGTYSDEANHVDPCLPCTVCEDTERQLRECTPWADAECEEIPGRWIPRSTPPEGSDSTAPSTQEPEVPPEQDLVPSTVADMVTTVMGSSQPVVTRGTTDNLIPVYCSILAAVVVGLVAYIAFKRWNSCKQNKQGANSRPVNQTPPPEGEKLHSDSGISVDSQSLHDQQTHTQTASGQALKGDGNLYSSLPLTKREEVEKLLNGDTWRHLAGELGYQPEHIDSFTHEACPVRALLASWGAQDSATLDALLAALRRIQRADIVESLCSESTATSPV

UniProt O54861, sequence (O54861 74-825 limits assumed): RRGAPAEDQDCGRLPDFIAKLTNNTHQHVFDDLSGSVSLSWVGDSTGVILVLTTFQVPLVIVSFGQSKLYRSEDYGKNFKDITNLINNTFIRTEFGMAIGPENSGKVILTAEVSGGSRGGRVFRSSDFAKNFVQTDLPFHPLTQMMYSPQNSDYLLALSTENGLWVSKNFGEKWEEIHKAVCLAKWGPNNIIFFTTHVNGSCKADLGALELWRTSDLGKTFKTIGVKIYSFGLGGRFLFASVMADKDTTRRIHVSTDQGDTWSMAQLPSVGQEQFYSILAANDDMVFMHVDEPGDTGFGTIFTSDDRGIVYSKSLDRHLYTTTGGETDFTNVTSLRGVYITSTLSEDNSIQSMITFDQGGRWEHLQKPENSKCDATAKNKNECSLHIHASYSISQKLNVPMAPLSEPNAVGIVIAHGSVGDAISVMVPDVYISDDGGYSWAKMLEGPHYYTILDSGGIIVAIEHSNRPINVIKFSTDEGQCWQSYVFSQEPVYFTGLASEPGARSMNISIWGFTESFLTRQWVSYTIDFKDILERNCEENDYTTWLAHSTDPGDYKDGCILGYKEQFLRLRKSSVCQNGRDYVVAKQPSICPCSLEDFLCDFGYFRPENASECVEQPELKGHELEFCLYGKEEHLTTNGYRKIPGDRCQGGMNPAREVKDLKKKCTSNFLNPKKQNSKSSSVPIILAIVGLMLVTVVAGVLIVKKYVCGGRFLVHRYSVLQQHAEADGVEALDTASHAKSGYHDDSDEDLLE

For the substance “proNGF123 (mutated mouse proNGF with mutations at all three processing sites) (ligand)”, the cell death of PC-12 cells, trypan blue analysis 72 hours post treatment (2 nM) (with Sortilin co-receptor; in test [1]) was above 90% throughout.
